{
  "source": "paper PMC5398727",
  "about": "“GP73 represses host innate immune response to promote virus replication by facilitating MAVS and TRAF6 degradation” (PLoS Pathogens, 2017)",
  "binders": {"B1": {"name": "MBP-M11 (domain or fragment, UniProt Q7Z434 1-90, looked up)", "chain": "MPFAEDKTYKYICRNFSNFCNVDVVEILPYLPCLTARDQDRLRATCTLSGNRDTLWHLFNTLQRRPGWVEYFIAALRGCELVDLADEVASISASTSLGMGPCHGPEENEYKSEGTFGIHVAENPSIQLLEGNPGPPADPDGGPRPQADRKFQEREVPCHRPSPGALWLQVAVTGVLVVTLLVVLYRRRLH", "notes": "also called MBP-fused M11; source: E. coli BL21, purified (amylose resin)"}},
  "molecular_target": "T1, GST-GP73 (aa36-401) (human, UniProt Q8NBJ4 36-401)",
  "T1 construct": "also called recombinant GST-GP73; GST-fused GP73; source: E. coli BL21, purified (glutathione Sepharose 4B)",
  "T1 sequence (looked up)": "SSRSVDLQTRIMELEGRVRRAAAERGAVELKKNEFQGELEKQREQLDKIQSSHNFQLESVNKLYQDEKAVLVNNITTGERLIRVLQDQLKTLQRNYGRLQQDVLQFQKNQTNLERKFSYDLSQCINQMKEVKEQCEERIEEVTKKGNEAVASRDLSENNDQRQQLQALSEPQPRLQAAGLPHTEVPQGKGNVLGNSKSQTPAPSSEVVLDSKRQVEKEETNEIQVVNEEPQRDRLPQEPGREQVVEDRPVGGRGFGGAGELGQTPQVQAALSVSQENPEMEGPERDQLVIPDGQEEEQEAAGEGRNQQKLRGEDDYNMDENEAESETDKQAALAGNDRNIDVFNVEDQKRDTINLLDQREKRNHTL",
  "assay": "pull-down; purified MBP, MBP-M11 or MBP-T6CC (20 μg) with 10 μg GST or 20 μg GST-GP73 overnight at 4°C; WB (S4A Fig)",
  "conditions": "both partners purified",
  "data": [
    {"binder": "B1", "values": [
      {"measurement": "binding result", "value": "binds"}
    ]}
  ]
}
